# Entries after “also recorded” stand apart in the source; their conditions may differ.
# Experiments:
# [1] = system: overnight abstinent smokers; assay: Blood measurements: insulin, glucose, C-peptide, non-esterified fatty acids (Example 1); assay type: in vivo, human
# Protocol: Blood measurements: Blood samples were analyzed for measurements of insulin, glucose, C-peptide, and non-esterified fatty acids.
# Serum insulin was analyzed on the Immulite 1000 immunoassay system (Siemens Healthcare GmbH, Erlangen, Germany). This is a solid-phase, enzyme-labeled chemiluminescent immunometric assay. The solid phase (bead) was coated with monoclonal murine anti-insulin antibody. The liquid phase consisted of alkaline phosphatase (bovine calf intestine) conjugated to polyclonal sheep anti-insulin antibody and alkaline phosphatase (bovine calf intestine) conjugated to monoclonal murine anti-insulin antibody. The patient sample and the reagent were incubated together with the coated bead for 60 minutes. During this time, insulin in the sample forms the antibody sandwich complex with the monoclonal murine anti-insulin antibody on the bead, enzyme conjugated polyclonal sheep anti-insulin antibody, and enzyme conjugated monoclonal murine anti-insulin antibody in the reagent. Unbound patient sample and enzyme conjugate were then removed by centrifugal washes. Finally, chemiluminescent substrate was added to the test unit containing the bead and the signal is generated in proportion to the bound enzyme.
# Serum glucose was performed on the ACE ALERA system (Alfa Wassermann Diagnostic Technologies, S.p.A., Bologna, Italy). An increase in absorbance of NADH is directly proportional to glucose concentration, and was measured bichromatically at 340 nm/378 nm.
# Serum C-peptide was performed on the Immulite 1000 immunoassay system (Siemens Healthcare GmbH, Erlangen, Germany). This is a solid-phase, two-site chemiluminescent immunometric assay. The solid phase (bead) is coated with monoclonal murine anti-C-peptide antibody. The liquid phase consists of alkaline phosphatase (bovine calf intestine) conjugated to monoclonal murine anti-C-peptide antibody in buffer. The patient sample and the reagent were incubated together with the coated bead for 30 minutes. During this time, C-peptide in the sample forms the antibody sandwich complex with monoclonal murine anti-C-peptide antibody in the reagent. Unbound patient sample and enzyme conjugate were then removed by centrifugal washes. Finally, chemiluminescent substrate was added to the Test Unit containing the bead and the signal is generated in proportion to the bound enzyme.
# Blood samples were collected at 12:20, 13:00, 13:40, and 14:10 and analyzed for non-esterified fatty acids using an AU 480 chemistry analyzer (Beckman Coulter, Inc., Brea, Calif.) using a NEFA-HR(2) kit (Wako Chemicals USA, Inc., Cape Charles, Va.).
# Random coefficient models were constructed for analyzing subjective (i.e., craving and mood), blood (insulin, glucose, C-peptide and nonesterified fatty acids) and cardiovascular (blood pressure) measures. For every model, an evaluation of non-linear term was performed, and, if significance was detected, that polynomial term for time was included in the model. Treatment, time and treatment by time interaction were included as fixed effects. Time nested within subjects was included as a random effect. If an interaction was detected, post hoc comparisons were performed comparing treatment groups at each time point. Cortisol was log-transformed for the purpose of normalizing distribution. The summary measure for cortisol analysis was peak change from baseline. […] Significance values are reported as detected; no adjustments were made for multiple comparisons.
# [2] = system: smokers, 36 hours of smoking abstinence; assay: Post-spray symptom-specific subjective ratings (0-10) of pain, burn, taste (Example 2); assay type: in vivo, human
# Protocol: Additional outcome measures included safety measures, i.e., post-spray symptom-specific subjective ratings and adverse events. Post-spray symptom-specific subjective ratings (0-10) of burn, pain, cough, and taste were collected after each spray round. Administration instructions were one spray in each nostril every three minutes for the total of six sprays. […] Adverse events were recorded and collected following the completion of every session as well as completion of the entire study.
# Placebo contained 8.7% NaCl. Per FDA approved protocol, the product was prepared in a biosafety cabinet of UNM Translational Radiopharmacy. Drug Preparation occurred 30 minutes before administration. […] or placebo was placed in a 10 mL amber glass bottle (Gerresheimer AG, Düsseldorf, Germany), which was capped with a 10 mg sterile nasal pump (Aero Pump GmbH, Hochheim, Germany). Assembled product was primed per manufacturer's recommendations before 0.6 ml volume was administered to study participants. In a randomized fashion, study nurse administered one spray in each nostril every three minutes for the total of six sprays of either insulin or placebo. As each spray delivers 0.1 ml of fluid, and the concentration of insulin in Novolin R is 100 IU/mL, administering six sprays delivers 60 IU of insulin.
# Random coefficient models were constructed for analyzing study outcomes. Treatment, time, treatment by time interaction, and sequence were included as fixed effects. Time nested within subjects, and time nested within treatment nested within subjects were included as random effects. Adverse events are presented in a descriptive fashion. No adjustment for multiple tests was made; all p values are reported at their nominal level.
# [3] = vs 8.7% NaCl placebo, scale 0-10, three spray rounds, p≤0.05
substance,measurement,setting,value
"intranasal insulin: bulk human Regular insulin (U100 Novolin R, Novo Nordisk US), 100 IU/ml, six nasal sprays delivering 60 IU","Glucose, effect of treatment",[1]; 60 IU intranasal vs placebo,did not differ; also recorded: subjects remained well within euglycemic range; also recorded: minor decline in plasma glucose concentrations
same,"Serum (circulating) insulin levels, effect of treatment",[1]; 60 IU intranasal vs placebo,did not differ; also recorded: no detection of treatment effects; also recorded: no significant changes in circulating insulin
same,"Serum insulin, treatment×time interaction, b","[1]; SE(b)=0.01, z=−0.37, p=0.71, non-significant",−0.005
same,"Glucose, treatment×time interaction, b","[1]; SE(b)=0.02, z=2.60, p≤0.01",0.05
same,"Glucose, treatment, b","[1]; SE(b)=2.55, z=−1.06, p=0.28",−2.72
same,"“taste” rating, interaction with treatment, b","[2]; SE(b)=0.10, z=−0.75, p=0.45, not significant",−0.07
same,"“pain” rating, treatment×spray number, b","[2]; SE(b)=0.16, z=−0.47, p=0.63",−0.07
same,"“burn” rating, interaction with treatment, b","[2]; SE(b)=0.17, z=1.23, p=0.22, not significant",0.21
same,"“pain” rating, treatment, b","[2]; SE(b)=0.31, z=−1.17, p=0.24",−0.36
same,"“burn” rating, treatment, b","[2]; SE(b)=0.43, z=−2.34, p≤0.05",−1.01
same,"Subjective spray rating of “pain”, effect of treatment","[2]; vs 8.7% NaCl placebo, scale 0-10, three spray rounds",No group differences were detected
same,"Subjective spray rating of “burn”, effect of treatment",[2]; [3],Main effect of treatment was significant; also recorded: There was an effect of treatment
same,"Subjective spray rating of “taste”, effect of treatment",[2]; [3],Main effect of treatment was significant; also recorded: there was an effect of treatment
same,"Subjective spray rating of “burn”, effect of treatment","[2]; vs 8.7% NaCl placebo, scale 0-10, three spray rounds, p≤0.05, listed as Intranasal insulin",notable burning sensation
